Where only a bound is given, the exact number is not on record here.

In series [1] the target is Φ11 dUTPase, dUTPase enzyme from the Φ11 Staphylococcal phage (Staphylococcal phage Φ11). As to the kind of experiment: inhibition of enzyme activity (steady-state dUTPase kinetics); 20 nM Φ11 dUTPase, 1 mM HEPES-HCl pH 7.5, 5 mM MgCl2, 150 mM KCl, phenol red, 293 K; the two proteins preincubated 5 min; quadratic binding equation fitted; apparent Ki.
For series [2] the target is unchanged.
For series [3] the target is unchanged. The source holds these as a separate data set.
Series [4] concerns the target Stl (SaPIbov1 repressor), wild type (Staphylococcus aureus pathogenicity …, UniProt Q9F0J8). Put plainly: EMSA; shift at 1 uM Stl (monomer). The following applies: protein: recombinant; tags: N-terminal GST removed by thrombin (pGEX-4T-1); chain copies: 2; label: none (GelRed stain); blunt.
The target in another series is Stl-CTD (Staphylococcus aureus pathogenicity …, UniProt Q9F0J8 85-267). As to the kind of experiment: EMSA; no shift at 2-30 uM Stl-CTD (monomer). Conditions: protein: recombinant; tags: N-terminal GST removed by thrombin (pGEX-4T-1); label: none (GelRed stain); blunt. On the technique in general: In EMSA bound probe runs differently from free probe, usually more slowly.

In the case of “Stl-Q40A,N41A double mutant of the SaPIbov1 repressor Stl (natural protein)”, in series [1], the Ki was determined as 1.4 nM. Moreover, in series [2], the maximal inhibition of Φ11 dUTPase activity by Stl-AA is more than 90%.

Consider “Stl-CTD, carboxy-terminal domain of the SaPIbov1 pathogenicity island repressor Stl (domain or fragment)”, for which, in series [1], the Ki is 1.5 nM. Besides, the maximum inhibition of Φ11 dUTPase activity at saturating Stl-CTD concentration in series [3] stood at 40%.

B1: 57mer Stl-binding dsDNA (dsDNA)
DNA 1: GCTCATATTATTCCTCTCCTACCATTTTATCTCTAATTGAGATATTTATATTCAGAT
DNA 2: ATCTGAATATAAATATCTCAATTAGAGATAAAATGGTAGGAGAGGAATAATATGAGC
For B1, the binding result is listed as “binds” in series [4] and “no binding” with Stl-CTD.

These data come from publication PMC4634304, “Evidence-Based Structural Model of the Staphylococcal Repressor Protein: Separation of Functions into Different Domains”.
